Data from US20200223888A1 (ARCH BIOPARTNERS, published 2020).
Ends that are not written are not given here. * marks the point of attachment. Biotin = O=C1N[C@H]2[C@H](CS[C@H]2CCCCC(=O)*)N1

B1: LSALT peptide (LSALTPSPSWLKYKAL) (peptide)
peptide: LSALTPSPSWLKYKAL
modifications: also: Alexa-488 or biotin label or agarose support in some assays, site not given here
notes: Synthetic peptide from a phage display hit; The label or support differs between assays; also called Metablok; Native

Legend:
[1] = target: T1, rat membrane dipeptidase (DPEP-1), expressed on transfected Cos cells (rat, UniProt P31430 17-384); test: Alexa-488 peptide on transfected Cos-7 cells, flow cytometry (FIG. 9)
T1 construct: whole, on cells; also called renal rat membrane dipeptidase (DPEP-1); rat DPEP-1
T1 sequence (P31430 17-384): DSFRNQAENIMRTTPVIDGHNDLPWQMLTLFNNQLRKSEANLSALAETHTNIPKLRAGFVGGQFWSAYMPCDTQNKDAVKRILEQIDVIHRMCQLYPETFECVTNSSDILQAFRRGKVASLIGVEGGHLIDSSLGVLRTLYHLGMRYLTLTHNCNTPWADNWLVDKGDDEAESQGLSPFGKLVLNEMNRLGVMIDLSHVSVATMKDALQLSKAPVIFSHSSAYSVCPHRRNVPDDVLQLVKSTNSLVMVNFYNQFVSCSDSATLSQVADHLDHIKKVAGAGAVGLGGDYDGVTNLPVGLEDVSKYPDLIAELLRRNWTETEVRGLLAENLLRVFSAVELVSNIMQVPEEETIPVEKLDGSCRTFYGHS
Protocol: Cells were washed and flow cytometry was performed to assess binding. Shown are single parameter histographs for each experimental condition (n=2).

[2] = target: T2, human membrane dipeptidase (DPEP-1), wild type, expressed on transfected cells (human, UniProt P16444 17-385); test: Alexa-488 peptide on transfected Cos-1 cells, immunofluorescence microscopy (FIG. 5B)
T2 construct: whole, on cells; also called human DPEP1; hDPEP1
T2 sequence (looked up): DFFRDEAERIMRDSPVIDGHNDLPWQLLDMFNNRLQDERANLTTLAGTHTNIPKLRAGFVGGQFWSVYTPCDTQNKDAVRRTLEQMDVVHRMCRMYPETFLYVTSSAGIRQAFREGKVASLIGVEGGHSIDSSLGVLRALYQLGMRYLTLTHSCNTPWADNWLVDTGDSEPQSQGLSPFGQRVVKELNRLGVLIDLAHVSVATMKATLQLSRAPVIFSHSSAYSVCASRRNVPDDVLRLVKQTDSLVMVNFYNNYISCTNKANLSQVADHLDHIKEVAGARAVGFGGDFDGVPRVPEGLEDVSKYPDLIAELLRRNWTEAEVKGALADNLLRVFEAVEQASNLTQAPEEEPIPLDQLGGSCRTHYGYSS
Protocol: Cells were blocked with FBS/NBSA/Tween in PBS for 30 minutes on ice.

[3] = target: T2, human membrane dipeptidase (DPEP-1), …; test: biotinylated peptide at 5 uM on fixed DPEP1-transfected HEK cells, Alexa 568-streptavidin, fluorescence microscopy
[4] = target: T2, human membrane dipeptidase (DPEP-1), …; test: phage (10^8 pfu) on DPEP1 transfected Cos 1 cells, anti-M13 serum, fluorescence imaging (FIG. 19B)
Protocol: In FIG. 19B, Cosl cells were transiently transfected with plasmids corresponding to human DPEP1 or DPEP2 (Lipofectamine 2000) 24 hrs prior to plating on collagen-coated (PureCol; Type I collagen from bovine tendon) coverslips. One day later cells were incubated with 10⁸ pfu test phage, which were then detected by anti-M13 rabbit serum (in house) with anti-rabbit Alexa 568 secondary. After fixing and counterstaining with DAPI, coverslips were fluorescently imaged.

[5] = target: B1; test: phage display biopanning against LSALT-agarose, three rounds, plaque sequencing (FIG. 20A)
Excerpt: Each plaque was amplified separately in liquid bacterial host culture. […] DNA inserts were translated to the expected protein and sorted to assess the number of repeating sequences.

[6] = target: GFE-1 peptide
[7] = target: T3, LSALT peptide (LSALTPSPSWLKYKAL)
T3 chain: LSALTPSPSWLKYKAL

Binder: B1
- binding result [1]: binds
- binding result [2]: binds

B2: LSALT alanine walk peptide Pos 10 (LSALTPSPSALKYKAL) (peptide)
peptide: Biotin-LSALTPSPSALKYKAL
notes: also called #A10; A10
- binding result [3]: binds

B3: LSALT alanine walk peptide Pos 12 (LSALTPSPSWLAYKAL) (peptide)
peptide: Biotin-LSALTPSPSWLAYKAL
notes: also called #A12; #Al2
- binding result [3]: binds

B4: LSALT alanine walk peptide Pos 5 (LSALAPSPSWLKYKAL) (peptide)
peptide: Biotin-LSALAPSPSWLKYKAL
notes: also called #A5; A5
- binding result [3]: binds

B5: LSALT alanine walk peptide Pos 1 (ASALTPSPSWLKYKAL) (peptide)
peptide: Biotin-ASALTPSPSWLKYKAL
notes: also called #A1; A1
- binding result [3]: binds

B6: phage hit displaying KHMHWHPPALNT (Ph.D.-12 library) (peptide)
peptide: KHMHWHPPALNT
notes: The phage coat protein part is not described; also called neogenin-mimetic peptide phage hit; phage peptide tentatively identified as corresponding to Neogenin
- binding result [4]: binds

B7: IPK phage hit HIPKSPIQIPII (Ph.D.-12 library) (peptide)
peptide: HIPKSPIQIPII
notes: also called IPK peptide
- binding result [5]: binds

B8: human membrane dipeptidase (DPEP-1), wild type, expressed on transfected cells (protein)
chain: DFFRDEAERIMRDSPVIDGHNDLPWQLLDMFNNRLQDERANLTTLAGTHTNIPKLRAGFVGGQFWSVYTPCDTQNKDAVRRTLEQMDVVHRMCRMYPETFLYVTSSAGIRQAFREGKVASLIGVEGGHSIDSSLGVLRALYQLGMRYLTLTHSCNTPWADNWLVDTGDSEPQSQGLSPFGQRVVKELNRLGVLIDLAHVSVATMKATLQLSRAPVIFSHSSAYSVCASRRNVPDDVLRLVKQTDSLVMVNFYNNYISCTNKANLSQVADHLDHIKEVAGARAVGFGGDFDGVPRVPEGLEDVSKYPDLIAELLRRNWTEAEVKGALADNLLRVFEAVEQASNLTQAPEEEPIPLDQLGGSCRTHYGYSS
- membrane dipeptidase enzyme activity (Gly-D-Phe substrate, fluorimetric detection of D-Phe) [6]: LSALT and GFE-1 do not inhibit membrane dipeptidase enzyme activity
- membrane dipeptidase enzyme activity (Gly-D-Phe substrate, fluorimetric detection of D-Phe) [7]: LSALT and GFE-1 do not inhibit membrane dipeptidase enzyme activity
